IntAct's records for PubMed 16530190

B1: Actin-binding protein WASF1 (Rattus norvegicus (Rat)), Q5BJU7 (parent)
chain: MPLVKRNIDPRHLCHTALPRGIKNELECVTNISLANIIRQLSSLSKYAEDIFGELFNEAHSFSFRVNSLQERVDRLSVSVTQLDPKEEELSLQDITMRKAFRSSTIQDQQLFDRKTLPIPLQETYDVCEQPPPLNVLTPYRDDGKEGLKFYTNPSYFFDLWKEKMLQDTEDKRKEKRKQKQKNLDRPHEPEKVPRAPHDRRREWQKLAQGPELAEDDADLLHKHIEVANGPASHFETRPQTYVDHMDGSYSLSALPFSQMSELLSRAEERVLVRPHEPPPPPPMHAAGDARPTPTCVSSAAGLIENRPQSPAAGRTPVFVSPTPPPPPPPLPSALSTSSLRASMTSTPPPPVPPPPPPPAPALQAPAVPPPPAPLQIAPGVLHPAPPPIAPPLVQPSPPVARAAPVCETVPVHPLPQGEVQGLPPPPPPPPLPPPGIRPSSPVTVAALAHPPSGLHPTPSPAPGPHAPLMPPSPPSQVLPASEPKRHPSTLPVISDARSVLLEAIRKGIQLRKVEEQREQEAKHERIENDVATILSRRIAVEYSDSEDDSEFDEVDWLE

Variants of: B1
Conditions: with gnai3_rat Gnai3, P08753
Sequence of gnai3_rat Gnai3, P08753 (P08753 whole entry): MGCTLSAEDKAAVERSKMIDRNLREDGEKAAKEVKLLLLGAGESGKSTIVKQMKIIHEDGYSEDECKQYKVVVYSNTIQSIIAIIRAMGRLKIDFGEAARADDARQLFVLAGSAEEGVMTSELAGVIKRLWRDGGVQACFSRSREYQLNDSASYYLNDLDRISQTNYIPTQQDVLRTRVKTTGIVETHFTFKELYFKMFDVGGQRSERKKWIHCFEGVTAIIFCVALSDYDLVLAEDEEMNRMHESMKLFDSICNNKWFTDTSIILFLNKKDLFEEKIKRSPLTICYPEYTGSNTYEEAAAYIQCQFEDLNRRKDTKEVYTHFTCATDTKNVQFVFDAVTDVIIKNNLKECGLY

effect of a mutation on the interaction	Variant
decreasing interaction	Q517A

Variants of: B1
Conditions: with actb_rat Actb

effect of a mutation on the interaction	Variant
decreasing interaction	Q517A

Variants of: B1
Conditions: with arpc2_human ARPC2, O15144

effect of a mutation on the interaction	Variant
decreasing interaction	Q517A
